Test results from patent US7056886B2, “GLP-2 formulations” (NPS Allelix, Corp., priority 1999, dated 2006).

Key:
[1] = pH solubility profile of h[Gly2]GLP-2 (precipitation); type: physicochemical
Experimental: (§1) Based on pH solubility profiles, it was determined that a phosphate buffer provides optimal buffering capacity for GLP-2 peptides. […] L-histidine acts as a stabilizing amino acid that increases the length of time that the GLP-2 peptide remains intact prior to degradation.

[2] = Temperature profile / phase transition of h[Gly2]GLP-2; type: physicochemical
Experimental: It has also been discovered that Tween 80®, salt, and arginine are not suitable materials for producing a stable formulation for h[Gly2]GLP-2.
as §1

h[Gly2]GLP-2
pH at which the analog precipitated [1]: less than 5.5
phase transition temperature ([2]; depending upon the salt concentration): 40-55 °C
behaviour in the presence of salt ([2]; in the presence of salt): becomes hydrophobic in the presence of salt
heat-induced and salt-dependent transition temperature ([2]; temperature profiles): about 40 °C
